Experimental data published in paper PMC7614990 (Science (New York, N.Y.), 2021).

B1: SF3B1 (natural protein)
chain: MAKIAKTHEDIEAQIREIQGKKAALDEAQGVGLDSTGYYDQEIYGGSDSRFAGYVTSIAATELEDDDDDYSSSTSLLGQKKPGYHAPVALLNDIPQSTEQYDPFAEHRPPKIADREDEYKKHRRTMIISPERLDPFADGGKTPDPKMNARTYMDVMREQHLTKEEREIRQQLAEKAKAGELKVVNGAAASQPPSKRKRRWDQTADQTPGATPKKLSSWDQAETPGHTPSLRWDETPGRAKGSETPGATPGSKIWDPTPSHTPAGAATPGRGDTPGHATPGHGGATSSARKNRWDETPKTERDTPGHGSGWAETPRTDRGGDSIGETPTPGASKRKSRWDETPASQMGGSTPVLTPGKTPIGTPAMNMATPTPGHIMSMTPEQLQAWRWEREIDERNRPLSDEELDAMFPEGYKVLPPPAGYVPIRTPARKLTATPTPLGGMTGFHMQTEDRTMKSVNDQPSGNLPFLKPDDIQYFDKLLVDVDESTLSPEEQKERKIMKLLLKIKNGTPPMRKAALRQITDKAREFGAGPLFNQILPLLMSPTLEDQERHLLVKVIDRILYKLDDLVRPYVHKILVVIEPLLIDEDYYARVEGREIISNLAKAAGLATMISTMRPDIDNMDEYVRNTTARAFAVVASALGIPSLLPFLKAVCKSKKSWQARHTGIKIVQQIAILMGCAILPHLRSLVEIIEHGLVDEQQKVRTISALAIAALAEAATPYGIESFDSVLKPLWKGIRQHRGKGLAAFLKAIGYLIPLMDAEYANYYTREVMLILIREFQSPDEEMKKIVLKVVKQCCGTDGVEANYIKTEILPPFFKHFWQHRMALDRRNYRQLVDTTVELANKVGAAEIISRIVDDLKDEAEQYRKMVMETIEKIMGNLGAADIDHKLEEQLIDGILYAFQEQTTEDSVMLNGFGTVVNALGKRVKPYLPQICGTVLWRLNNKSAKVRQQAADLISRTAVVMKTCQEEKLMGHLGVVLYEYLGEEYPEVLGSILGALKAIVNVIGMHKMTPPIKDLLPRLTPILKNRHEKVQENCIDLVGRIADRGAEYVSAREWMRICFELLELLKAHKKAIRRATVNTFGYIAKAIGPHDVLATLLNNLKVQERQNRVCTTVAIAIVAETCSPFTVLPALMNEYRVPELNVQNGVLKSLSFLFEYIGEMGKDYIYAVTPLLEDALMDRDLVHRQTASAVVQHMSLGVYGFGCEDSLNHLLNYVWPNVFETSPHVIQAVMGALEGLRVAIGPCRMLQYCLQGLFHPARKVRDVYWKIYNSIYIGSQDALIAHYPRIYNDDKNTYIRYELDYIL
B2: HTATSF1 in the 17S U2 snRNP eluted with 3C protease (natural protein)
chain: SGTNLDGNDEFDEQLRMQELYGDGKDGDTQTDAGGEPDSLGQQPTDTPYEWDLDKKAWFPKITEDFIATYQANYGFSNDGASSSTANVEDVHARTAEEPPQEKAPEPTDARKKGEKRKAESGWFHVEEDRNTNVYVSGLPPDITVDEFIQLMSKFGIIMRDPQTEEFKVKLYKDNQGNLKGDGLCCYLKRESVELALKLLDEDEIRGYKLHVEVAKFQLKGEYDASKKKKKCKDYKKKLSMQQKQLDWRPERRAGPSRMRHERVVIIKNMFHPMDFEDDPLVLNEIREDLRVECSKFGQIRKLLLFDRHPDGVASVSFRDPEEADYCIQTLDGRWFGGRQITAQAWDGTTDYQVEETSREREERLRGWEAFLNAPEANRGLRRSDSVSASERAGPSRARHFSEHPSTSKMNAQETATGMAFEEPIDEKKFEKTEDGGEFEEGASENNAKESSPEKEAEEGCPEKESEEGCPKRGFEGSCSQKESEEGNPVRGSEEDSPKKESKKKTLKNDCEENGLAKESEDDLNKESEEEVGPTKESEEDDSEKESDEDCSEKQSEDGSEREFEENGLEKDLDEEGSEKELHENVLDKELEENDSENSEFEDDGSEKVLDEEGSEREFDEDSDEKEEEEDTYEKVFDDESDEKEDEEYADEKGLEAADKKAEEGDADEKLFEESDDKEDEDADGKEVEDADEKLFEDDDSNEKLFDEEEDSSEKLFDDSDERGTLGGFGSVEEGPLSTGSSFILSSDDDDDDI
B3: SF3B3 (natural protein)
chain: MFLYNLTLQRATGISFAIHGNFSGTKQQEIVVSRGKILELLRPDPNTGKVHTLLTVEVFGVIRSLMAFRLTGGTKDYIVVGSDSGRIVILEYQPSKNMFEKIHQETFGKSGCRRIVPGQFLAVDPKGRAVMISAIEKQKLVYILNRDAAARLTISSPLEAHKANTLVYHVVGVDVGFENPMFACLEMDYEEADNDPTGEAAANTQQTLTFYELDLGLNHVVRKYSEPLEEHGNFLITVPGGSDGPSGVLICSENYITYKNFGDQPDIRCPIPRRRNDLDDPERGMIFVCSATHKTKSMFFFLAQTEQGDIFKITLETDEDMVTEIRLKYFDTVPVAAAMCVLKTGFLFVASEFGNHYLYQIAHLGDDDEEPEFSSAMPLEEGDTFFFQPRPLKNLVLVDELDSLSPILFCQIADLANEDTPQLYVACGRGPRSSLRVLRHGLEVSEMAVSELPGNPNAVWTVRRHIEDEFDAYIIVSFVNATLVLSIGETVEEVTDSGFLGTTPTLSCSLLGDDALVQVYPDGIRHIRADKRVNEWKTPGKKTIVKCAVNQRQVVIALTGGELVYFEMDPSGQLNEYTERKEMSADVVCMSLANVPPGEQRSRFLAVGLVDNTVRIISLDPSDCLQPLSMQALPAQPESLCIVEMGGTEKQDELGERGSIGFLYLNIGLQNGVLLRTVLDPVTGDLSDTRTRYLGSRPVKLFRVRMQGQEAVLAMSSRSWLSYSYQSRFHLTPLSYETLEFASGFASEQCPEGIVAISTNTLRILALEKLGAVFNQVAFPLQYTPRKFVIHPESNNLIIIETDHNAYTEATKAQRKQQMAEEMVEAAGEDERELAAEMAAAFLNENLPESIFGAPKAGNGQWASVIRVMNPIQGNTLDLVQLEQNEAAFSVAVCRFSNTGEDWYVLVGVAKDLILNPRSVAGGFVYTYKLVNNGEKLEFLHKTPVEEVPAAIAPFQGRVLIGVGKLLRVYDLGKKKLLRKCENKHIANYISGIQTIGHRVIVSDVQESFIWVRYKRNENQLIIFADDTYPRWVTTASLLDYDTVAGADKFGNICVVRLPPNTNDEVDEDPTGNKALWDRGLLNGASQKAEVIMNYHVGETVLSLQKTTLIPGGSESLVYTTLSGGIGILVPFTSHEDHDFFQHVEMHLRSEHPPLCGRDHLSFRSYYFPVKNVIDGDLCEQFNSMEPNKQKNVSEELDRTPPEVSKKLEDIRTRYAF

Assays:
Assay in all cases: cryo-EM structure
[1] = target: SF3B6 (human (endogenous in FreeStyle 293-F), UniProt Q9Y3B4 1-125)
[2] = target: PHF5A (human (endogenous in FreeStyle 293-F), UniProt Q7RTV0 1-110)
[3] = target: B1

Binder	binding result [1]	binding result [2]	binding result [3]
B1	binds	binds	
B2			binds
B3			binds
